The DeepSol protein solubility set

Assay: soluble on expression in E. coli; label from the status in PepcDB or PDB records

MTTLNKENIQKEFKERLSEDELLNCMRCGFCLPTCPTYIQSGYKESHSPRGRIALMKAVVDGLIEPDEDVENTLNVCLGCRACEPVCPSGVNYGHLLEEARDIINQNKKFSMPVRAVRKVVFEELFPHQNRMRTLTGLIGFYQRSGLQTITHKTGIMKLFPETLATMDLVLPKVPKMKAMKDRPTFLPAESTKKKQVAFFTGCLMDTMFLETNNATMKLLQLAGCDIVIPKTQSCCGALHGHAGEKSGAKELAKRNIKAFEDLNIDYIITNAGGCGAYLVDYDYLLKDDPQWAGRAKQFVSKIKDITAILVELDFHKRNDLRLTPQIITYQDSCHLRNVMRTSSEPRMLLEAIQGATYREMKDADRCCGSAGIYNIVHSELSMEFLDYKMDRVHETDATTIVTANPGCLLQMKLGIEREGLSHKMRGIHIVDLLLEAIETNS
soluble on expression in E. coli: not soluble

LSKPKLAVVGARKCSETGKQSVRKIVHELGNAFTIVSGLARGIDTCAHMEALKNKGNTIAVIGTGLDVYYPKENKALQDYMAKNHLVLTEYGPGEQPLKYHYPERNRIISGLCQGVMVVEAKLRSGSLITCERAMEEGRDVFAIPGNILDGKSDGCHHLIQEGAKCITTGFDIISEFS
soluble on expression in E. coli: not soluble

MAKKSTGFDHDPVRVLVAWNPSSHGAEAIECAAWLARTTNVTVQCVTAFLRPWPSSSGNKLGSKYKKWFKKEAFACEDAVKAAFSRAEIPTAMWADTVSVFCDGTNEAALLSEAAHKFGADIVLLGSEAAAPKGRFLAGSTADALLHSSPQPLGLTPRKPKLSKRGVTRVNFAYTGDATDNTSLIRTARLAAAWDVPLRVLALSPEGFGVPPISDTLELPEDLALEWRENTFAVLDRSRDTVHKAHPDVIVETEIGSGNGWSGAIESLKWKKGDLLCFGSTPLGAFERVFIGSQATEILPYVSVPVLMIPATTKVDKKSKK
soluble on expression in E. coli: soluble

SANAEVSVPVGDVVVVPTEGNEGENPEDTKTQVILQLQPVQQGIYEAGSENNTAVVAVETHTIHKIEEGIDTGTIEANEDMEIAYPITCGESKAILLWKKFVCPGINVKCVKFNDQLISPKHFVHLAGKSTLKDWKRAIRLGGIMLRKMMDSGQIDFYQHDKVCSNTCRSTKFDLLISSARAPVPGQQTSVVQTPTSADGSITQIAISEESMEEAGLEWNSALTAAVTMATEEGVKKDSEEISEDTLMFWKGIADVGLMEEVVCNIQKEIEELLRGVQQRLIQAPFQVTDAAVLNNVAHTFGLMDTVKKVLDNRRNQVEQGEEQFLYTLTDLERQLEEQKKQGQDHRLKSQTVQNVVLMPVSTPKPPKRPRLQRPASTTVLSPSPPVQQPQFTVISPITITPVGQSFSMGNIPVATLSQGSSPVTVHTLPSGPQLFRYATVVSSAKSSSPDTVTIHPSSSLALLSSTAMQDGSTLGNMTTMVSPVELVAMESGLTSAIQAVESTSEDGQTIIEIDPAPDPEAEDTEGKAVILETELRTEEKVVAEMEEHQHQVHNVEIVVLED
soluble on expression in E. coli: soluble

MSLKHHHNHHGEAGFKRKVDYLDRPERSEVLSPEDFLQAMPIGKTASILDLGAGTGFLTIPAAKLVDNTVFALDLDAKMLELIESKAKEAGLANVETLEASMDDIPLEANSVDVVLASLVLHEADSLADVLREVSRVVKTGGYFASLEFDTKGTDLKGPPMEIQISAEKLKEELAGFGFEVVKNWQLDEGMYVSIAVKKEGHHHHHH
soluble on expression in E. coli: soluble

MCGRFTLTLPPDLLAEIIGEIEAARVQPRYNIAPAQEVAVVRQDAGGRRHLDYLRWGLIPPWAKDASVGNHMINARSETVAEKPAFRHAFRSRRCLVLASGFYEWKAEGNRKQPLYIHMKDGGPMVFAGLWESWKSPEGAIVESCTILTTYSNSLIRPLHDRMPVILGRSDWDIWLSREATSEELTPLFQPYPSDLLAMYPVGTGVNSPRNDSPDLLEPLNEPLEHHHHHH
soluble on expression in E. coli: not soluble

SVSPLKTRCCSPSSQQQASEAREIEQPSTVWELDFYSRPVYGKDNKRIWELIVVDESFLLCHVESVPNDMINSAELRKRVERLLEQVTVKPKVVKFSRMPMFNMISLALKDLGFEVKPSRRTYRLYHVLRDREANIYSKMPGYRSENTLSTSYLYSTERLPDALRGEKFAFCTADYSFLYELQSSDTIPYCDIFNTGDSILLEKELPGIIVYSERADSLASWTAGAEVSFIKFREEELELVLECGINSHYRLAKIAEDHRLVEEAKTFEQMKWHMKGFHFYAIQSLKETSGTSHIKGLWLLNDFMEQ
soluble on expression in E. coli: soluble

VVCREASHAGSWYTASGPQLNAQLEGWLSQVQSTKRPARAIIAPHAGYTYCGSCAAHAYKQVDPSITRRIFILGPSHHVPLSRCALSSVDIYRTPLYDLRIDQKIYGELWKTGMFERMSLQTDEDEHSIEMHLPYTAKAMESHKDEFTIIPVLVGALSESKEQEFGKLFSKYLADPSNLFVVSSDFCHWGQRFRYSYYDESQGEIYRSIEHLDKMGMSIIEQLDPVSFSNYLKKYHNTICGRHPIGVLLNAITELQKNGMNMSFSFLNYAQSSQCRNWQDSSVSYAAGALTVH
soluble on expression in E. coli: soluble

MGSDKIHHHHHHMFDPETLRTFISVAETGSFSKAAERLCKTTATISYRIKLLEENTGVGLFFRTTRSVSLTAAGSHLLSQAKDWLAWLDSMPDELRQVNDGVERQVNIVVNNLLYSPQAVASLLSWLNARYPFTQFHFSRQIYMGVWDSLLYEGFSLAIGVTGTEPLANTFMLDPLGSVQWRFVMSADHPLAHVSGPLTEAQLRRFPAINIEDSARTLTKRVAWRLPGQKEIIVPDMETKIAAHLAGVGIGFVPQPLCQTLIDKNELVSCTIPTMRPPSPLSLAWHKFGGGKAVEDIVKLFTQRQPEIAGFLSIFNTVRC
soluble on expression in E. coli: not soluble

MAHHHHHHMMSKPHHATLESIKYTPGSLRLLDQRKLPLETVFDDVLTVEDIWSAIKEMRVRGAPAIAVSAALGIAVATQRKAANGELKSGREVQTFLLTSCDFVMTSRPTAVNLFNCLRDLKAQVDKLDPTKAAAEVAQAFVELAEAVYTNDVAFNEGIMRHGAAHILAAAKAEGRDKVSILTICNTGALATSRYGTALGVVRQLFYDGKLERVYACETRPWNQGARLTVYECVQEDIPCTLICDGAASSLMLNRKIDAVVVGADRICQNGDTANKIGTYNLAVSAKFHGVKLYVAAPTTTLDVKTASGNHVEIEEREPTEITTNLVTKQRVVADGPHLSIWNPVFDITPSELITGGIITEKGVQAPAASAPYYDIASIIAQA
soluble on expression in E. coli: soluble

MAHHHHHHMPGSLKVQTGRGDARKTVKKTVLSKGNITRSDEPAGVADSAASASVAKSSSTTASTLTIAVALSMCEQERAVEAVKETIPASASREVLRKDPIYRIMHALPRSDVLEVVRSRFEKPHCERAAAYFDLSYMKNPLRHLRLQLGCDGPTGIYLFFRRIAAHRHTLRVVDFSRNRLSADDAVLICNTLGLGVAGDVATAPGTTKASSAGAVADSTVSTAVGASAQPASSLELLDLSYNAKLGNDGAVHVVRAVRRLPSIRAVILKSVGIDDAGAVAMADVVRRWPAPALCANSAAPHALLRPVTASATKFYLNLNENYIGARGTDVLGKGLPHYVSLTLAKQQPDPARDRKRSRDDDGAACR
soluble on expression in E. coli: not soluble

MDVSFEFEHYQVRLIKSSDAVTIANYFMRNRHHLAPWEPKRSHAFFTPEGWKQRLLQLVELHKHNLAFYFVVVDKNEHKIIGTVSYSNITRFPFHAGHVGYSLDSEYQGKGIMRRAVNVTIDWMFKAQNLHRIMAAYIPRNEKSAKVLAALGFVKEGEAKKYLYINGAWEDHILTSKINDDWKPE
soluble on expression in E. coli: not soluble

GMPTDDIVQLLKGQEEAWNRGDLDAYMQGYWQNEQLMLISNGKFRNGWDETLAAYKKNYPDKESLGELKFTIKEIKMLSNYAAMVVGRWDLKRLKDTPTGVFTLLVEKIDDRWVITMDHSSD
soluble on expression in E. coli: soluble

MSNNDCISTDKVDLDKKQIKKFLKQINISQLTKMIQFIDNKLLSDWDFNCLTYFDESEYPFFDINLSLICTIDHNIPINIIINFLCFVEKQYNNVPYHNTIHATMVTQKFFCLAKKLGIYDDLEYKIKLVMFISGICHDIGHPGYNNLFFVNSLHPLSIIYNDISVLENYHASITFKILQLNQCNILKNFSEKDFRMMRSYIIELILSTDMKHHFEIISKFRIRRENEDFDYIKNSDDLLILTKMIIKSADISHGSVSWSEHYCWCQRVLSEFYTQGDEELKNKMPLSPLCDRTKHNEVCKSQITFLKFVVMPLFEELSHIDNNKFIKSFCLKRLNSNCIMWDTLMKEEKTIE
soluble on expression in E. coli: soluble

MHAFTTERLLIRPLISEDEHFYCYQYTDKKMMRIVGEPLTQEQASAAFHRALKANNLEQDTVRTWAIVDKAANDIIGTQALSWLATRQTTKPSSSPIEQVEIGIMLATRANGKLLPEEAVSAIMEYGFKQLNIGRINAFYANKNRATQRILKKIGYIFEPCLQDNTTDNGYQYFEQHQWSGVIITQLFPEEIEIKEPTVND
soluble on expression in E. coli: not soluble

MGSDKIHHHHHHMYYRPADGHGLPHNPFNAIVSPRPIGWISTRGEGGGDNLAPYSFFNAVAYEPPQVMFSSTSAKEDRGDTKDSVANIRETGVFCVNIVEYAARDAMNETSGPWPATEDEFQRAGIERADCTEIPCSRVASAPANLECRVTQIIKLEGAHNFAVFGEVVGVHIRDDVLVDGHFDVTRFNPLTRMGYRDYSVIRDVFSLKRPGE
soluble on expression in E. coli: not soluble

MHHHHHHSSGRENLYFQGMTVREKTRLEKFRQLLSSQNTDLDELRKCSWPGVPREVRPITWRLLSGYLPANTERRKLTLQRKREEYFGFIEQYYDSRNEEHHQDTYRQIHIDIPRTNPLIPLFQQPLVQEIFERILFIWAIRHPASGYVQGINDLVTPFFVVFLSEYVEEDVENFDVTNLSQDMLRSIEADSFWCMSKLLDGIQDNYTFAQPGIQKKVKALEELVSRIDEQVHNHFRRYEVEYLQFAFRWMNNLLMRELPLRCTIRLWDTYQSEPEGFSHFHLYVCAAFLIKWRKEILDEEDFQGLLMLLQNLPTIHWGNEEIGLLLAEAYRLKYMFADAPNHYRR
soluble on expression in E. coli: soluble

GPVDPAEYDAVWSAWRRAAPAEESRGRAAVVQKMRACLNNGNAVLNVGESGLTTLPDCLPAHITTLVIPDNNLTSLPALPPELRTLEVSGNQLTSLPVLPPGLLELSIFSNPLTHLPALPSGLCKLWIFGNQLTSLPVLPPGLQELSVSDNQLASLPALPSELCKLWAYNNQLTSLPMLPSGLQELSVSDNQLASLPTLPSELYKLWAYNNRLTSLPALPSGLKELIVSGNRLTSLPVLPSELKELMVSGNRLTSLPMLPSGLLSLSVYRNQLTRLPESLIHLSSETTVNLEGNPLSERTLQALREITSAPGYSGPIIRFDMAGASAPRETRALHLAAADWLVPAREGEPAPADRWHMFGQEDNADAFSLFLDRLSETENFIKDAGFKAQISSWLAQLAEDEALRANTFAMATEATSSCEDRVTFFLHQMKNVQLVHNAEKGQYDNDLAALVATGREMFRLGKLEQIAREKVRTLALVDEIEVWLAYQNKLKKSLGLTSVTSEMRFFDVSGVTVTDLQDAELQVKAAEKSEFREWILQWGPLHRVLERKAPERVNALREKQISDYEETYRMLSDTELRPSGLVGNTDAERTIGARAMESAKKTFLDGLRPLVEEMLGSYLNV
soluble on expression in E. coli: soluble

SPRIAEKMLRKRHGQAAFAAYVEKREQTRAAARAYDQRALQGDLEIIYNFGQDLIDEHAIEVSAEQVTVPGFSQPLVYKKDARFSDMLD
soluble on expression in E. coli: not soluble
